Source: patent publication US8106168B2, “Metalloproteinase binding proteins” (Dyax Corp., priority 2005, dated 2012)

T1: MMP-2 (Homo sapiens, UniProt P08253)
T1 sequence (P08253 110-660): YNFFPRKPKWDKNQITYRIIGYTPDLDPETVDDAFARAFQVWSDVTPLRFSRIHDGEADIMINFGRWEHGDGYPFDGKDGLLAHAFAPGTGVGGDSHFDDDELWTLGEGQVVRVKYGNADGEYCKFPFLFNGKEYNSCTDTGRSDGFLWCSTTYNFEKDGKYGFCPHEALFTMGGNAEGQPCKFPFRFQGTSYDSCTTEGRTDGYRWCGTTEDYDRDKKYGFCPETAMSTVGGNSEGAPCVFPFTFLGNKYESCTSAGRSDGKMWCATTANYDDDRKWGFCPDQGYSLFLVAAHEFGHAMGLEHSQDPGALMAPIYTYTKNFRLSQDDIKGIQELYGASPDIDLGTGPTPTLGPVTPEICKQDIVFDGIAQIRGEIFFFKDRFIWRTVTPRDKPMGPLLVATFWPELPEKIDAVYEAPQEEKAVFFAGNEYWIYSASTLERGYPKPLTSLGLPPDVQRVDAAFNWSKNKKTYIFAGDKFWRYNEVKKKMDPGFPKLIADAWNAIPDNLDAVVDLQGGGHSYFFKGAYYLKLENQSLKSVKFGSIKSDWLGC

T2: MMP-7 (Homo sapiens, UniProt P09237)
T2 sequence (P09237 95-267): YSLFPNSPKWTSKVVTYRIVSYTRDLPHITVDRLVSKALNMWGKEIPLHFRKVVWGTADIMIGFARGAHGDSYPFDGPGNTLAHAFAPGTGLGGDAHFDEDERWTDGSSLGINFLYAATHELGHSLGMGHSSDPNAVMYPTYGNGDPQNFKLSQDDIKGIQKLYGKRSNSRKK

B1: M0043-G02: human antibody (Fab, IgG) that binds and inhibits MMP-14; HC SEQ ID NO: 166, LC SEQ ID NO: 167 (antibody, V domains shown)
VH: EVQLLESGGGLVQPGGSLRLSCAASGFTFSWYPMFWVRQAPGKGLEWVSGIYSSGGPTDYADSVKGRFTISRDNSKNTLYLQMNSLRAEDTAVYYCAKDTLGRYYDFWSGYSYGMDVWGQGTTVTVSS
VL: QDIQMTQSPGTLSLSPGERATLSCRASQSVSSSYLAWYQQKPGQAPRLLIYGASSRATGIPDRFSGSGSGTDFTLTISRLEPEDFAVYYCQSGVTFGGGTKVEIK
modifications: Synthetically generated peptide
B2: M0040-A06: human antibody (Fab, IgG) that binds and inhibits MMP-14; HC SEQ ID NO: 162, LC SEQ ID NO: 163 (antibody, V domains shown)
VH: EVQLLESGGGLVQPGGSLRLSCAASGFTFSYYGMYWVRQAPGKGLEWVSSISSSGGYTDYADSVKGRFTISRDNSKNTLYLQMNSLRAEDTAVYYCARRIKYYDIEGEGAFDIWGQGTMVTVSS
VL: QDIVMTQTPPSLPVNPGEPASISCRSSQSLLHRNGYNYLDWYLQKPGQSPQLLIHLGSYRASGVPDRFSGSGSGTDFTLKISRVEAEDVGVYYCMQPLQTPFTFGPGTKVDIK
modifications: Synthetically generated peptide
B3: M0038-F01: human antibody (Fab, IgG) that binds and inhibits MMP-14; HC SEQ ID NO: 156, LC SEQ ID NO: 157 (antibody, V domains shown)
VH: EVQLLESGGGLVQPGGSLRLSCAASGFTFSLYSMNWVRQAPGKGLEWVSSIYSSGGSTLYADSVKGRFTISRDNSKNTLYLQMNSLRAEDTAVYYCARGRAFDIWGQGTMVTVSS
VL: QDIQMTQSPSSLSAFVGDKVTITCRASQSVGTYLNWYQQKAGKAPELLIYATSNLRSGVPSRFSGSGSGTDFTLTINTLQPEDFATYYCQQSYSIPRFTFGPGTKVDIK
modifications: Synthetically generated peptide

Assays:
MMP-24 = MMP-24 (Homo sapiens, UniProt Q9Y5R2); experiment: Cross-reactivity of anti-MMP-14 IgGs, enzymatic activity: MMP-24; format: biochemical; conditions: 1 μM anti-MMP-14 IgG
Experimental: (§1) The cross-reactivity of exemplary anti-MMP-14 IgGs and Fabs with other human MMPs and TACE (TNF-alpha converting enzyme) was examined. MMP and TACE enzymatic activity was monitored in the absence and presence of 1 μM anti-MMP-14 IgG antibody. Inhibition (Y) of activity ranged from approximately 50-80% of the reaction rate observed in the absence of antibody. “X” indicates no inhibition was observed. Cross-reactivity was not determined for MMP-17 because protein activity could not be detected.
(§2) For the studies summarized in Table 12, six anti-MMP-14 IgGs were selected for cross-reactivity testings: M0043-G02, M0040-A06, M0037-D01, M037-C09, M0038-F01, M0033-H07.

MMP-12 = MMP-12 (Homo sapiens, UniProt P39900); experiment: Cross-reactivity of anti-MMP-14 IgGs, enzymatic activity: MMP-12; format: biochemical; conditions: 1 μM anti-MMP-14 IgG
Experimental: as §1, §2

MMP-2 = biological target: T1, MMP-2; experiment: Cross-reactivity of anti-MMP-14 IgGs, enzymatic activity: MMP-2; format: biochemical; conditions: 1 μM anti-MMP-14 IgG
Experimental: as §1, §2

MMP-13 = MMP-13 (Homo sapiens, UniProt P45452); experiment: Cross-reactivity of anti-MMP-14 IgGs, enzymatic activity: MMP-13; format: biochemical; conditions: 1 μM anti-MMP-14 IgG
Experimental: as §1, §2

MMP-9 = MMP-9 (Homo sapiens, UniProt P14780); experiment: Cross-reactivity of anti-MMP-14 IgGs, enzymatic activity: MMP-9; format: biochemical; conditions: 1 μM anti-MMP-14 IgG
Experimental: as §1, §2

MMP-7 = biological target: T2, MMP-7; experiment: Cross-reactivity of anti-MMP-14 IgGs, enzymatic activity: MMP-7; format: biochemical; conditions: 1 μM anti-MMP-14 IgG
Experimental: as §1, §2

MMP-8 = MMP-8 (Homo sapiens, UniProt P22894); experiment: Cross-reactivity of anti-MMP-14 IgGs, enzymatic activity: MMP-8; format: biochemical; conditions: 1 μM anti-MMP-14 IgG
Experimental: as §1, §2

MMP-3 = MMP-3 (Homo sapiens, UniProt P08254); experiment: Cross-reactivity of anti-MMP-14 IgGs, enzymatic activity: MMP-3; format: biochemical; conditions: 1 μM anti-MMP-14 IgG
Experimental: as §1, §2

[1] = tested on: activation of pro-MMP-2 by MMP-14 in PMA-activated HT-1080 cells; experiment: Gelatin zymogram, pro-MMP-2 activation in HT-1080 cells; format: cell-based, human; conditions: gelatin zymography of conditioned media after 3 days; antibodies 10 μg/ml, GM6001 10 μM
Experimental: The ability of anti-MMP-14 IgGs to inhibit the activation of pro-MMP-2 by MMP-14 was examined by gelatin zymogram experiments performed with PMA-activated HT-1080 cells. M0033-H07 and M0038-F01 were tested for their ability to inhibit MMP-14 in this assay. HT1080 cells (well-known to express MMP-14 and MMP-2) were seeded at 5×10^5 cells/well at Day 0. […] HT-1080 cells cultured in the presence of 20 ng/ml of PMA were used as a positive control.
After 3 days of incubation, conditioned media were collected and gelatinolytic activities were analyzed by gelatin zymography as described previously (Maquoi et al, J Biol Chem 2000; 275:11368-78). When HT-1080 cells are activated with a phorbol ester, pro-MMP-2 is activated into MMP-2 (lane 1).

PC3 prostate tumors = experiment: PC3 prostate tumor growth; format: in vivo, mouse; conditions: M0038-F01 10, 1 or 0.1 mg/kg Q2d IP; taxotere 10 mg/kg weekly IP; A2 10 mg/kg Q2d
Excerpt: PC3 prostate cancer cells were implanted into male nude mice by subcutaneous injection.

[2] = tested on: Human umbilical vascular endothelium cells (HUVECs); experiment: HUVEC tube formation on […]; format: cell-based; conditions: 1 nM to 250 nM; 18 hours
Experimental: Human umbilical vascular endothelium cells (HUVECs) were seeded into […]™ basement membrane extract-coated 96 well plates at 20,000 or 40,000 cells in 100 μl/well. The seeded cells were incubated for 30 minutes, then the various test articles were added (vehicle control, M0038-F01 at concentrations ranging from 1 nM to 250 nM, or suramin 8 mg/ml). The cells were incubated at 37° for 18 hours. 100 μl of calcein solution (8 μg/ml) was added 20 minutes prior to image capture. Tube lengths were also quantified.

[3] = tested on: B16F1 melanoma lung metastases; experiment: B16F1 melanoma metastasis model, tail vein injection; format: in vivo, mouse; conditions: 10 mg/kg Q2d IP, 14 days; lungs taken day 15
Experimental: MMP-14 binding antibodies were also tested in a model of melanoma metastasis. B16F1 cells were grown in culture, harvested at 85% confluence and inoculated at 5×10^5 cells/mouse in 100 μl saline by tail vein injection. Treatment started on Day 1, post inoculation, for 14 days. […] On day 15, animals were sacrificed and lungs taken, fixed, and analyzed for the number of metastases (nodules).

MMP14 = biological target: T3, MMP14 (Mus musculus, UniProt P53690); experiment: Immunohistochemical staining in acute phase SCW-induced arthritis; conditions: 7 days after first injection of SCW
T3 construct: from tissue; host or cells: knee joints of C57Bl6 mice with SCW-induced arthritis (synovial cells, chondrocytes, macrophages)
Experimental: Antigen-induced arthritis, a model of rheumatoid arthritis, was induced by intraarticular injection of Streptococcus cell wall (SCW, […]) into the knee joints of C57B16 mice at day 0, 7, 14 and 21.
MMP14 expression in acute phase SCW-induced arthritis (7 days after the first injection of SCW) was examined by immunohistochemical staining using M0038-F01.

MMP-12, sequence (P39900 106-470): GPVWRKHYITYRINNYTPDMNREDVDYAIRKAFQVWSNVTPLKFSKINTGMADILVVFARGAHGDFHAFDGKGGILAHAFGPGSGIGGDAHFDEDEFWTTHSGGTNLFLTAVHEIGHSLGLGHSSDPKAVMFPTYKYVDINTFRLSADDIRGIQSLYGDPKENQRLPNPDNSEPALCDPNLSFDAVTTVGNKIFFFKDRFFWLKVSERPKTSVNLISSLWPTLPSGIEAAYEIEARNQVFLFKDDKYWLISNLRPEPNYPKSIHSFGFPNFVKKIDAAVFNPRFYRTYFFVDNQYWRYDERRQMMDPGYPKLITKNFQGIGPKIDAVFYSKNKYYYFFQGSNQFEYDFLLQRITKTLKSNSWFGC
MMP-24, sequence (Q9Y5R2 156-645): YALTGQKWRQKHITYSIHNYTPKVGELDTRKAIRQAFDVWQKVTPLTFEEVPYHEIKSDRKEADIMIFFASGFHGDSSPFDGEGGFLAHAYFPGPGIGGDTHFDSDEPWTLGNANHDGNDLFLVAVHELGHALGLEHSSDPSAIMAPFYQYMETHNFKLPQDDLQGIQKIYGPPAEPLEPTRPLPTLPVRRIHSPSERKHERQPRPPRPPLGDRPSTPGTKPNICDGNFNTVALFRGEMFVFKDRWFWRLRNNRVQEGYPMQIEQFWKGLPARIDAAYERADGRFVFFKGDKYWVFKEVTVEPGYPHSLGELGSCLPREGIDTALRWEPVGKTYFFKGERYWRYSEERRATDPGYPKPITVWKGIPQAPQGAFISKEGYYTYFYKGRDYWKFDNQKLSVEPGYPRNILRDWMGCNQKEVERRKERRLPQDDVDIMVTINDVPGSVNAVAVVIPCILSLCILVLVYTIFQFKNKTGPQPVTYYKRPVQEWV
MMP-9, sequence (P14780 94-707): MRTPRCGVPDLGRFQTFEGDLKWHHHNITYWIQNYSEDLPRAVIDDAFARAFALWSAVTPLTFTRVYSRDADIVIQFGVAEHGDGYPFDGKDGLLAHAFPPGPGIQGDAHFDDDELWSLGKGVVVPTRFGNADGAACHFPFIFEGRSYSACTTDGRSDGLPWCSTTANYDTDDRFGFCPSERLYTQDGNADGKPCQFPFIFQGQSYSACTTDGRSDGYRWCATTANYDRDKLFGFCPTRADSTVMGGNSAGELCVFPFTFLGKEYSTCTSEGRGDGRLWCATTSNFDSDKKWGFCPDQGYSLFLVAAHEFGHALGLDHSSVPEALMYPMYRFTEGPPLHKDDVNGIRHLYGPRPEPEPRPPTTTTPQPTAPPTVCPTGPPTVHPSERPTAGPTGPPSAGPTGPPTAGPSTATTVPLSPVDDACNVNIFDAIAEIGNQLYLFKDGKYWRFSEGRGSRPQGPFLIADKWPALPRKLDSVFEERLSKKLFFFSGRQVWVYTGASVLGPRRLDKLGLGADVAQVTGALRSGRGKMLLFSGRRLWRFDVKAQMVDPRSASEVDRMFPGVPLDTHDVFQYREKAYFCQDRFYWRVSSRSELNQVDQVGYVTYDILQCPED
MMP-3, sequence (P08254 100-477): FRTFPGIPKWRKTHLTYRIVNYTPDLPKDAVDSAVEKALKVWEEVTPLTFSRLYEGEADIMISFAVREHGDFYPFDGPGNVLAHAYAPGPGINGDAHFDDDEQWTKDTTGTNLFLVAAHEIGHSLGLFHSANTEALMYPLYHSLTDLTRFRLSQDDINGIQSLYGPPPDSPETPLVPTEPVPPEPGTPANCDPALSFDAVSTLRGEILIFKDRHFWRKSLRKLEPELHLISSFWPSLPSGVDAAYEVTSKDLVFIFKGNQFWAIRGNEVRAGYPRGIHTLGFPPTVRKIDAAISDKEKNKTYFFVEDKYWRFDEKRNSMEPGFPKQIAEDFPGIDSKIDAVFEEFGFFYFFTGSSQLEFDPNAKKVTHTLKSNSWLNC
MMP-8, sequence (P22894 101-467): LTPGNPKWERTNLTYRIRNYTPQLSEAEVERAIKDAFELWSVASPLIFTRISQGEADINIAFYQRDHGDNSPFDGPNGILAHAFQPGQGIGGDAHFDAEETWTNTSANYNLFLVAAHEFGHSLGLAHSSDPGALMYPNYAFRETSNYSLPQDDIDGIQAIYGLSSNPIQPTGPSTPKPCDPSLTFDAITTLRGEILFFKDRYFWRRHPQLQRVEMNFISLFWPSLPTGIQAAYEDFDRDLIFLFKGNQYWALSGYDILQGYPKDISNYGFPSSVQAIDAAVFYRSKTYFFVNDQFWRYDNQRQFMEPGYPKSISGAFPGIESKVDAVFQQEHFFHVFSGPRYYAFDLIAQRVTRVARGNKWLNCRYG

Molecule	Cross reactivity: inhibition of MMP-24 activity (MMP-24)	Cross reactivity: inhibition of MMP-12 activity (MMP-12)	Cross reactivity: inhibition of MMP-2 activity (MMP-2)	Cross reactivity: inhibition of MMP-13 activity (MMP-13)	Cross reactivity: inhibition of MMP-9 activity (MMP-9)	Cross reactivity: inhibition of MMP-7 activity (MMP-7)	Cross reactivity: inhibition of MMP-8 activity (MMP-8)	Cross reactivity: inhibition of MMP-3 activity (MMP-3)	pro-MMP-2 activation by MMP-14 [1]	pro-MMP-9 expression [1]	tumor growth (tumor volume) (PC3 prostate tumors)	tube formation [2]	number of lung melanoma tumors (nodules) [3]	immunohistochemical staining of joint tissue (MMP14)
B1	Y (Inhibition (Y) of activity ranged from approximately 50-80% of the reaction rate observed in the absence of antibody)	Y (Inhibition (Y) of activity ranged from approximately 50-80% of the reaction rate observed in the absence of antibody)	Y (Inhibition (Y) of activity ranged from approximately 50-80% of the reaction rate observed in the absence of antibody)	Y (Inhibition (Y) of activity ranged from approximately 50-80% of the reaction rate observed in the absence of antibody)	Y (Inhibition (Y) of activity ranged from approximately 50-80% of the reaction rate observed in the absence of antibody)	–	–	–	–	–	–	–	–	–
B2	Y (Inhibition (Y) of activity ranged from approximately 50-80% of the reaction rate observed in the absence of antibody)	Y (Inhibition (Y) of activity ranged from approximately 50-80% of the reaction rate observed in the absence of antibody)	Y (Inhibition (Y) of activity ranged from approximately 50-80% of the reaction rate observed in the absence of antibody)	Y (Inhibition (Y) of activity ranged from approximately 50-80% of the reaction rate observed in the absence of antibody)	Y (Inhibition (Y) of activity ranged from approximately 50-80% of the reaction rate observed in the absence of antibody)	Y (Inhibition (Y) of activity ranged from approximately 50-80% of the reaction rate observed in the absence of antibody)	Y (Inhibition (Y) of activity ranged from approximately 50-80% of the reaction rate observed in the absence of antibody)	Y (Inhibition (Y) of activity ranged from approximately 50-80% of the reaction rate observed in the absence of antibody)	–	–	–	–	–	–
B3	–	–	–	–	–	–	–	–	completely inhibits	No stimulation	reduced in all M0038-F01 treated animals, with the 10 mg/kg dose being most effective, followed by the 1 mg/kg and 0.1 mg/kg doses	dose-dependently inhibits tube formation	substantially reduced the number of lung melanoma tumors	strongly stained synovial cells and chondrocytes, as well as macrophages in joint exudate
